B1: hybrid molecule P (other)
chain: MGAASNKAFAEGLSGEPKGAAESSSKAALTSKLDAAYKLAYKTAEGATPEAKYDAYVATLSEALRIIAGTLEVHAVKPAADLGYGPATPAAPAAGYTPATPAAPAEAAPAGKATTEEQKLIEKINAGFKAALAAAAGVQPADKYRTFVATFSGRGCGSCFEIKCTKPEACSGEPVVVHITDDNEEPIAPYHFDLSGHAFGAMAKKGDEQKLRTGPFTVRYTTEGGTKTEAEDVIPEGWKADTSYESKAEEVKVIPAGELQVIEKVDAAFKVAATAANAAPAAVKQAYAATVATAPEVKYTVFETALKKAITAMSEAQKAAKPAAAATATATAAVGAATGAATAATGGYKVNDKFTVFEAAFNDAIKASTGGAYESYKFIPALEAIPKVPPGPNITATYGDKWLDAKSTWYGKPTGASAGELELQFRRVKCKYPEGTKVTFHVEKGSNPNYLALLVKYVNGDGDVVAVDIKEKGKDKWIELKESWGAIWRIDTPDKLGPKDNGGACGYKDVDKPPFSGMTGCGNTPIFKHHHHHH
B2: hybrid molecule Q (other)
chain: MFRFLTEKGMKNVFDDVVPEKYTIGATYAPEEDEWVAMTKGEGGVWTFDSEEPLQGPFNADKYKTFEAAFTVSSKRNLADAVSKAPQLVPKLDEVYNAAYNAADHAAPEDKYEAFVLHFSEALRIIAGTPEVHAVKPGAVPKVTFTVEKGSNEKHLAVLVKYEGDTMAEVELREHGSHHHHHH
B3: hybrid molecule B (other)
chain: MAVKQAYAATVATAPEVKYTVFETALKKAITAMSEAQKAAKPAAAATATATAAVGAATGAATAATGGYKVAEEVKVIPAGELQVIEKVDAAFKVAATAANAAPANDKFTVFEAAFNDAIKASTGGAYESYKFIPALEAIPKVPPGPNITATYGDKWLDAKSTWYGKPTGAGPKDNGGACGYKDVDKPPFSGMTGCGNTPIFKSAGELELQFRRVKCKYPEGTKVTFHVEKGSNPNYLALLVKYVNGDGDVVAVDIKEKGKDKWIELKESWGAIWRIDTPDKLHHHHHH
B4: hybrid molecule C (other)
chain: MGAASNKAFAEGLSGEPKGAAESSSKAALTSKLDAAYKLAYKTAEGATPEAKYDAYVATLSEALRIIAGTLEVHAVKPAADLGYGPATPAAPAAGYTPATPAAPAEAAPAGKATTEEQKLIEKINAGFKAALAAAAGVQPADKYRTFVATFSGRGCGSCFEIKCTKPEACSGEPVVVHITDDNEEPIAPYHFDLSGHAFGAMAKKGDEQKLRTGPFTVRYTTEGGTKTEAEDVIPEGWKADTSYESKHHHHHH

Target: serum IgE from grass pollen allergic patients
Test: cell-based or functional assay

CD203c expression on human basophils isolated from grass pollen allergic patients, 10 fold:
B1
B2
B3
B4

Source: patent publication US20120207788A1 (BIOMAY, published 2012)
